± gives the half width of the 95% confidence interval.
Tests used:
[1] = folding stability dG unfold from trypsin proteolysis; higher = more stable
Outline: (§1)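 How resistant each design was to proteolysis was captured as K50, inferred by Bayesian fitting of sequencing counts. Unfolding free energy was then derived relative to a sequence-predicted unfolded-state K50 and a shared folded-state K50, per protease or combined. Digestion used trypsin and chymotrypsin at 11 threefold-diluted concentrations plus a no-protease condition, on mini-proteins under 80 residues without cysteine in a PA-tagged cDNA display construct. Designs were kept only when AlphaFold2 dimer inter-PAE was above 15.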

[2] = folding stability dG unfold (combined trypsin and chymotrypsin); higher = more stable
Outline: as §1

[3] = folding stability dG unfold from chymotrypsin proteolysis; higher = more stable
Outline: as §1

SAGGSAGGSKVKLTFTIPPGTTPEEAIAKAEELAKKLNIPIVKIDSIEYDPETGTVRIELELDSAGGSAGGS [r12_131_TrMRF]
folding stability dG unfold [1]: 4.05 ± 0.15 kcal/mol
folding stability dG unfold [2]: 4.31 ± 0.068 kcal/mol
folding stability dG unfold [3]: 4.31 ± 0.049 kcal/mol

SAGGSAGGSAGGKTLTLVFKTKEEAEEAAKKLGFKKVEVKEFKNEDGEKYLVVKIELKPSAGGSAGGSAGGS [r10_494_TrROS_Hall]
folding stability dG unfold [1]: 2.43 ± 0.058 kcal/mol
folding stability dG unfold [2]: 2.94 ± 0.22 kcal/mol
folding stability dG unfold [3]: 3.1 ± 0.047 kcal/mol

SAGGSAGGSAGGMVVEVVELPDGQLVVRAGPVGYAVVFNGEEVTLFELPPDAEVELLPFSAGGSAGGSAGGS [r10_637_TrMRF]
folding stability dG unfold [1]: 1.1 ± 0.032 kcal/mol
folding stability dG unfold [2]: 1.36 ± 0.098 kcal/mol
folding stability dG unfold [3]: 1.55 ± 0.089 kcal/mol

SAGGSAGGSAGSNKVVTFVPRDPATGAPLGERPIPINSSSGSEIESIKKELPPEVVEIVESAGGSAGGSAGG [r17_339_JUSTAS]
folding stability dG unfold [1]: 0.605 ± 0.044 kcal/mol
folding stability dG unfold [2]: 1.01 ± 0.066 kcal/mol
folding stability dG unfold [3]: 1.15 ± 0.02 kcal/mol

SAGPVKIQIEPDNGEEFEFRLPPNVSEIETSGDKFIIRFPPGMMFKIEIDEELPPGDTVPIRILDIVPSAGG [r19_274_TrROS]
folding stability dG unfold [1]: 1.33 ± 0.057 kcal/mol
folding stability dG unfold [2]: 1.21 ± 0.17 kcal/mol
folding stability dG unfold [3]: 1.26 ± 0.15 kcal/mol

SAGGSAMTITEDGTLTLEIKVPEDAPEATVKVTVLTDGKTLGEADPATGKVTLKVPPDVEVKVEVASAGGSA [r15_180_TrMRF]
folding stability dG unfold [1]: 1.09 ± 0.074 kcal/mol
folding stability dG unfold [2]: 1.69 ± 0.13 kcal/mol
folding stability dG unfold [3]: 1.87 ± 0.045 kcal/mol

SAGGSAGGSAGGPPVLAESTFSFPDGVTVRLAFLPDGKAIAELTPPDGSKIEVEFDVDASAGGSAGGSAGGS [r10_1184_TrMRF]
folding stability dG unfold [1]: -0.214 ± 0.11 kcal/mol
folding stability dG unfold [2]: 0.189 ± 0.23 kcal/mol
folding stability dG unfold [3]: 0.203 ± 0.14 kcal/mol

SAGGSAGGSKKALVVFYNPETGEVEVLEVEGDADLLKELFEPGTVVEIRVGDEVITIYPEDLKSAGGSAGGS [r20_36_TrMRF]
folding stability dG unfold [1]: 1.51 ± 0.085 kcal/mol
folding stability dG unfold [2]: 2.11 ± 0.058 kcal/mol
folding stability dG unfold [3]: 2.41 ± 0.054 kcal/mol

SAGGSAGGSAEPPPLVVVTEVRTITVEIDLDDLSEEEREALENLDTVTITVTRVVVVPREDLSAGGSAGGSA [r18_127_TrROS_Hall]
folding stability dG unfold [1]: 2.42 ± 0.22 kcal/mol
folding stability dG unfold [2]: 1.84 ± 0.46 kcal/mol
folding stability dG unfold [3]: 1.39 ± 0.22 kcal/mol

SAGGSAMGTLRLGFVTGPDEEGRYEILDVTLEPGEPVLVTLRARFTFPDGDSVEVPFRFVVPPELLSAGGSA [r15_187_TrMRF]
folding stability dG unfold [1]: 2.78 ± 0.038 kcal/mol
folding stability dG unfold [2]: 2.96 ± 0.12 kcal/mol
folding stability dG unfold [3]: 3.15 ± 0.048 kcal/mol

SAGGSAGGSAGMKSTVTQPGDTWTITITDPETGEVTTYTLTPAQLGELAASSRPVAVAPGSAGGSAGGSAGG [r11_741_JUSTAS]
folding stability dG unfold [1]: 0.614 ± 0.053 kcal/mol
folding stability dG unfold [2]: 1.24 ± 0.058 kcal/mol
folding stability dG unfold [3]: 1.5 ± 0.086 kcal/mol

SAGGSAGGSAGGGMARAEKLPSSWTLVSVTPRDGSTVVTYKLPDGSTLTLDLRPDSYDGASAGGSAGGSAGG [r7_775_JUSTAS]
folding stability dG unfold [1]: 0.436 ± 0.058 kcal/mol
folding stability dG unfold [2]: 1.1 ± 0.075 kcal/mol
folding stability dG unfold [3]: 1.46 ± 0.15 kcal/mol

SAGGSAGGSAGGKKIEIPGFEITKVEPLENDSVIAEGKFKNGKKYRILFLPNKVYINDESAGGSAGGSAGGS [r10_312_TrMRF]
folding stability dG unfold [1]: 0.335 ± 0.16 kcal/mol
folding stability dG unfold [2]: 0.357 ± 0.16 kcal/mol
folding stability dG unfold [3]: 0.44 ± 0.2 kcal/mol

SAGGNFVVPFKDPEQVKEIREAAEKGEEIEITPPDGKKFTFKVESVEVDPESGRVVIKLPSGKEFPLSAGGS [r16_254_TrMRF]
folding stability dG unfold [1]: 0.275 ± 0.057 kcal/mol
folding stability dG unfold [2]: 0.617 ± 0.16 kcal/mol
folding stability dG unfold [3]: 0.62 ± 0.24 kcal/mol

SAGGSAGGSAGGKTYTLTFKAKIEVSEDDVVVITPPNGKKLVVPKENVKVHPDGTVTVTGSAGGSAGGSAGG [r7_684_TrMRF]
folding stability dG unfold [1]: 1.28 ± 0.097 kcal/mol
folding stability dG unfold [2]: 1.19 ± 0.2 kcal/mol
folding stability dG unfold [3]: 1.27 ± 0.2 kcal/mol

SAGGSMVRVTIEDKDGKEHWIMIPPGMDPNDVKQQIKKFLEDNGWKVKDVEVETYPPGWAMIRVRVSAGGSA [r2_148_TrROS]
folding stability dG unfold [1]: 1.88 ± 0.021 kcal/mol
folding stability dG unfold [2]: 2.2 ± 0.052 kcal/mol
folding stability dG unfold [3]: 2.33 ± 0.031 kcal/mol

SAGSMLLIKITITFKDPNGNLLKTIPIEKEADPNDPEAIEKAKEEAEKLAEELLPEDELAEVKAEVLLLSAG [r5_793_JUSTAS]
folding stability dG unfold [1]: 1.73 ± 0.11 kcal/mol
folding stability dG unfold [2]: 2.24 ± 0.19 kcal/mol
folding stability dG unfold [3]: 2.36 ± 0.097 kcal/mol

SAGGSAGGSAGGMKKKKLKEGVEIEFFREGDYLYVTTKIPETGKEETKKVKKVPKDIPLSAGGSAGGSAGGS [r10_240_JUSTAS]
folding stability dG unfold [1]: -0.245 ± 0.45 kcal/mol
folding stability dG unfold [2]: 0.22 ± 0.23 kcal/mol
folding stability dG unfold [3]: 0.298 ± 0.14 kcal/mol

SAGGSVEVEPLPNGLLRVTTVFSESKTPILRKLTYKDENGKPLGTKLELLPEEVEVESVTELLPPELLSAGG [r13_848_JUSTAS]
folding stability dG unfold [1]: -1.07 ± 0.29 kcal/mol
folding stability dG unfold [2]: 0.256 ± 0.079 kcal/mol
folding stability dG unfold [3]: 0.606 ± 0.11 kcal/mol

SAGGSAVSISTVTSTSFPGSGTSVKTYETPDFTVTVTTTRDPNGADTVEIHTDDPEAEKTVREYLASAGGSA [r15_42_JUSTAS]
folding stability dG unfold [1]: 0.601 ± 0.049 kcal/mol
folding stability dG unfold [2]: 0.337 ± 0.14 kcal/mol
folding stability dG unfold [3]: -0.348 ± 0.28 kcal/mol

SAGKETIKIKLFDKNGKLIAEIEIEKLPDGTYKIKIKNKKTGKELEIEVKIEDGKIYIKLPNGAILEIESAG [r5_809_TrROS_Hall]
folding stability dG unfold [1]: 3.51 ± 0.19 kcal/mol
folding stability dG unfold [2]: 5.04 ± 0.2 kcal/mol
folding stability dG unfold [3]: 5.13 ± 0.2 kcal/mol

SAGGSASLASLRKVGETVTYTITPDGTLTVTTHTFYRDPVTGELVVESTTTTTPIPPGDAAALAALSAGGSA [r15_207_JUSTAS]
folding stability dG unfold [1]: 2.72 ± 0.072 kcal/mol
folding stability dG unfold [2]: 2.5 ± 0.098 kcal/mol
folding stability dG unfold [3]: 2.37 ± 0.054 kcal/mol

MYVVRAKFKIKGEDGSEFEAETVILVEETPEEAKEKVEEKAREIAEELGLSLENITEIEVEVLSLDEELLPS [r1_159_TrMRF]
folding stability dG unfold [1]: 1.44 ± 0.1 kcal/mol
folding stability dG unfold [2]: 2.12 ± 0.27 kcal/mol
folding stability dG unfold [3]: 2.16 ± 0.15 kcal/mol

SATVTLVSVEKEGDKTTVTTRDPSGYTVTVTNPDGSIVLAPIPAEGAEAAIAAIKAAHPGVTVTLEAAASAG [r14_528_JUSTAS]
folding stability dG unfold [1]: 0.617 ± 0.036 kcal/mol
folding stability dG unfold [2]: 1.15 ± 0.11 kcal/mol
folding stability dG unfold [3]: 1.24 ± 0.031 kcal/mol

SPNFRISPEIKNAIKRALKENEPGKKVEIRMRYPDGPTIMISIDKPGSINIEVEPDPGKPIMEFEFDIKDSA [r9_132_TrROS]
folding stability dG unfold [1]: 0.732 ± 0.079 kcal/mol
folding stability dG unfold [2]: 0.873 ± 0.16 kcal/mol
folding stability dG unfold [3]: 0.825 ± 0.069 kcal/mol

SGMDSNPKTTTENISFEEALKRLPSSVTSVEPRGESVVIKQSSPDSLTVVTMTRDPSSDSAPATTTTYLSSA [r9_604_JUSTAS]
folding stability dG unfold [1]: 0.304 ± 0.087 kcal/mol
folding stability dG unfold [2]: 0.341 ± 0.17 kcal/mol
folding stability dG unfold [3]: 0.181 ± 0.36 kcal/mol

SAGGSAGGSAGMTVTTITKTYPFDPNKSLSFTVPPGATITDKKTDADIAKGTVTVTVTVASAGGSAGGSAGG [r11_701_JUSTAS]
folding stability dG unfold [1]: 0.345 ± 0.053 kcal/mol
folding stability dG unfold [2]: 0.436 ± 0.13 kcal/mol
folding stability dG unfold [3]: 0.355 ± 0.13 kcal/mol

SAGGSAGGSAPKILIVEDEKTGKLYAFVYDKDTKELYVAEFTYDKKTKKLTVKIKKVSLEDLSAGGSAGGSA [r18_505_TrROS_Hall]
folding stability dG unfold [1]: 2.88 ± 0.09 kcal/mol
folding stability dG unfold [2]: 4.19 ± 0.26 kcal/mol
folding stability dG unfold [3]: 4.67 ± 0.18 kcal/mol

SAGGSAGGSMPVITVDPSIKEFKDEKGNKYLLTPVTVTLPNGVPVTVVYTTDPSTGKTTPATSGSAGGSAGG [r6_298_JUSTAS]
folding stability dG unfold [1]: 0.671 ± 0.059 kcal/mol
folding stability dG unfold [2]: 0.62 ± 0.1 kcal/mol
folding stability dG unfold [3]: 0.481 ± 0.12 kcal/mol

SAGGSAGGSAGGKVSEIDLSGDKVVVTVKGPGGSVVREVHPDKTLEQVLDELLENPELVDSAGGSAGGSAGG [r7_373_TrMRF]
folding stability dG unfold [1]: -0.176 ± 0.1 kcal/mol
folding stability dG unfold [2]: 1.13 ± 0.057 kcal/mol
folding stability dG unfold [3]: 1.55 ± 0.05 kcal/mol

SPRTTVSFEVYMPPDQLKQNSIEDIADRVRDHFPGYKIKGIDIKFEPYPDPENGRPWVRVTVMIRVEPPESA [r9_1189_TrROS]
folding stability dG unfold [1]: 2.34 ± 0.085 kcal/mol
folding stability dG unfold [2]: 2.96 ± 0.14 kcal/mol
folding stability dG unfold [3]: 3.28 ± 0.098 kcal/mol
